Results from the NTF2 design screens of Basanta et al. (2020).

Assay: protease stability score; higher = more stable; yeast display proteolysis, trypsin and chymotrypsin;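 note: relative to predicted unfolded state with 0 unfolded-like and 1 meaning tenfold more protease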

Sequence	protease stability score
SEYEDLIKTALHLWHEIFLTGNEDVLHRLIDPHVRVTFNGVRNHGRDYLLHHIEELGMEHHNFDISHVDMQGDKIILYTFLHAHVNGRTTSFQLHIFWIKVNGRWIVKRVEIR	0.759
SEYEEEMRETLELTALYMRTGNEEDMKELMDPDAKIDVGDKHFHGREQVLHVIKHWRSKHIILREVDFQGEYIHSNGQVTTLINGRELDVESRWIILKVDGRWLVHSVLYL	0.758
SEYEEESRIAYELFLETVRTGDEDTSREQADPNVRVDVNGVHLHGRELWAEFVSKYKGMQLDLHHVEIQGNKVTNDGTLTVNGVRRKVHLRINKVNGKWILESVHIH	1.32
SEYEEEVRRAMELEIRSIKTGNEELIKHLMDPNVRLVIGDKNFHGREAIEVFVERFDYIHEVEITSIDLQGDFVNMRGVLDGRINGQRLRTKVHYISRKVDGRWFSESIHIR	0.66
SEYEEFLKEALRILIDDILTGDWRLVYKLFDPETRLNVNGQEIHGRDDVVHHLTHIAREWRMDVKVKEYNVFDGQIHMFGHLQLEFDGREYRRRVELIIIKFNGQWHLRQVVKH	1.58
SEYEEWSERHLKHWEDARDTGDFDSETDLLDPHMRFQLIIGEKRVRFHGMEVLIEHVLRFKNATVREQKSHVEVIDGRIYIRLEGRYDVNGKDFDVEIIIISEKVNGRWILRYIEIRIH	1.55
SEYEHEAREVMHRLIHATETGDEEQILRMIDPHVRIDINGVELIGWRHLEEYLRRIDVVYIRIDARRVDVQGDKIRVDTEMDVEVDYDGRKFRHKEKTIIFMHKVDGRWLITSFHVL	2.7
SEYERDFRYAFNIYARDVLTGDEESLRRLLDPNMRIDVNGVHIHGREHLLQIWHEIRIHHFEIDLKHIEVQGNKIHVHGETHIDGEINGQRDEFKIRDSLLVLKVNGKWIFKRFIVD	0.951
SEYYEESKRMAEEHQHMRETGDEDRLRHLMDPTTKVEVGDKEFHGREWWHEFYKRFDHIEFRIHDIKLIDGVAIIQSIIIVRQGDKSDTLHVTIRITKVNGRWRTKSFEVI	1.48
SHDEDRLREMIERWVEFMITGDEDRLRELADPNMRIHVNGKDLHGREEYARWINELGVKHIEITHVDLQGDKIDIVTELRFDGRTHDIHIKARKIDGRWHLTEFREE	1.34
SHDEELVERVLKMYKHAIETGDEELLTLLLDPDTRLEIDGVDFHGMDIAIHILFKELLRHGIRTEHMRVEDVKVQGDFVHVDVEVNIDVDGREETERRHLVLWKFNGRWRVKHHHIH	2.35
SHDEEQVDRFLKLWSHAVMTGDWKFMYELLDPHTRLVINGKNVHGREEISKFFHDHVSRIKNLKIEVHLNEVRIFDGRAHLDIEVRIHIGDKNHTIHVEIVVEKVDGRWHVHSIHEK	1.36
SHDEEWARRFFEDFVRAILTGDEEHLFKNVDPNVRVEIGDKELHGREDFHQHLHEIRIKRFEVHDLTLQGEKVEEDIEMDGQVNGQRFRTRQRVVVDWVNGRFHHLKIEWE	0.715
SHDELLATRLVEEVWELWLTGDEDRTAELLDPDVRFFFIVGDKTHTFHGRDKIRKLMHDLRNHWRIHHIRIERFRVQGEYSEFDVRSHGRYNGVEEETTVHLSLDVVNGKVKRIIVHIR	1.6
SHEDELIEKTLHITLEAYTTGDEHTVTRMLDPHVKILFNGVELIGRELVWEHLKEIRMHWHHVHIEDIKRQGEKIHITGRLYMEIRQGDYRERSTYRTRIITLKINGRWFIESLEIN	1.95
SHEDELIERFYKWLIHILETGDEERWMEYADPDARLLYNGKDLIGRDEARRQMHEMRFHHMEVKSIRVVDGKVNVTGRIDGEINGRHHEHEVLLVIIKFNGKWLIKTVQFH	1.22
SHEDELNEKIAKTFFKDLLTGDEDSITHLLDPNARVHIHVNGRHILIHGREWLEYLKKHARIRHFELHDMEIQGDKLIFDVEVVIEYGDKVIERRSEEILILFNGRVTSYHLIIK	1.2
SHEDELSRHILETWKEILDTGDEHTEHELADPNTRIEVDGRDIMGWHAWNHFLRKMGIKHIHFERVSIQGNKIHIDGIMEFDGRRRKTDIDLHVVNGRIESIRYEVK	1.63
SHEDHLVDLAFEVWRRDLETGDEDLLKKLVDPNVRIIQGDKMYHGMDDYVERLRRIWEELGVDYIQVHLEHSRQVNGVAELDVRLKLRIGDKRREYRLHLHIEKVNGKWQIKQINIQ	0.277
SHEDKLNEEVARLIIHAWKTGNERLMLKLLDPHTRFEQGDKEMVGREHLLEMLRHRLEELGVDHIDFKDYKIDVVDGVLNIYLRIEIEVGDKHIDMIIKVIVLKFDGRWHVHEVRVEER	1.5
SHEDRWIEHMVDLLEELFHTGDWEHLRHLFDPNTRSNINGKEFHGRDLAIKLVVEKMEFFKGARTDVEHRHVQGEKVELIFRLEYNGRRFHLSIRLQVVNGRVKEVNVKIDTE	1.67
SHEEEDEHRLVIEWLEAVLTGDEDRLTELFDPNMRFVFENHQVHGRERVSKLLVRHMLEWRTRVKIEDMEYFNGRLHIDMELHVDVNGRHVNIKSLLIVEKINGKWFVRSVRVR	0.534
SHEEEESTKVAEDWLRHVLTGDEEDMTKLADPNTKVDVGDKHMHGMRSYWEFLHEIRIKHVHVHRIHIELVNGRAFIIIDGEIHEEVGDKEVEIKSRFILIVEKVNGRWIIREVRYQRI	1.54
SHEEEIAREISRDLFRAFLTGDEDWLLKNLDPDARLHVSVGDKSEHFHGREEVMKFVREWRVHRIEIKELRVFNGRIHSRVHVYGEFNGQRFRTDIHENYNIVDGRIKEIHVEIR	1.66
SHEEELEEKIARILLEAWITGDEEFLFRLADPNVKLDIKYGDKRHIHIGREELLKWYRHELERFKNMKIVLHDRHIQGEKVHLHLVMHFNGQRIDVRIEVIIINGRIKHIHIEVDEK	2.6

Sequence	protease stability score
SHEEEMAERALRKFIHSVQTGDEDSWEELLDPNVRINIGDKRHVGRHEAVKLFRQRIRHLRIDHIELRERDYYGDKLILRIIVEGRFNGQETTLELHIVFWKFDGRWIIESMEHK	2.77
SHEEEMHLHVAELMLKLLLTGNEEELAKLMDPNVQTEIDGRSYHGRELIIDLIRHSREKLGVNHSELKRSHVRLVDGRLHVHLDSRFLVNGVWLDVEIEMFVLKINGKWVIESVHVRVR	0.718
SHEEHEMHNALKLLLDAWRTGDEDSLNNNADPRMKIKVNGKEFVGMEHMTHFLRELLEELRFTDSTVTELDIVNGVLISVTRLHIEVGDKRMDFHTRLVFTKVNGRWRLHSLVLI	1.99
SHEEHHLYEVAEMLLRWWRTGDEDSLYKFIDPHARVEIGEYSVHGREHIVRLMSRHLREIRLKDTDVHRIDVINGQTVLNVRLRGEINGVDTNVDARLHVVVVDGVVHSIHIEHI	1.24
SHEEHLKRDMLERSFKAWLTGDEESLHELLDPHVRVHFNGRDFHGRELVSTLIREMLRWLGIKHSRFHHIQVFDGKARLELRLEQGEFEVEIEVISLKVDGRWFQHELRFH	1.02
SHEKELNERAFRILIEELMTGDEDSWRKLADPNTRHIIDGQTYHGMDFFHEHVRKMGMTIHHVELEDYRFQGEKAVLILHIDGRQGEKHDKIRITIFIEKVDGRWILREVRIG	1.17
SHEQEEARFFLDVLIEWFLTGDEEHMMKNADPNVRIEVGDKHLHGRELTYEWLKELRFKHHHVHRVTSQGDKVYYDVKVDGHINGVDRHSLEIIITLKFDGRWILKSIHVR	1.95
SHHEDDSEISIELTHNLIETGDFELLTELFDPNARMDYNGVTVHGRERVSEFLSRFAHHIRIKRRILRHMDLFDGQIHLHEEYHYDWDGQDIHTEVRFRSEKVNGRWVPKLLHRI	0.969
SHHEEHLHEMLRLILEAWETGDEDFLEELADPRVQLIVNGKDIHGRHVFRTMLRTHIEQMRIKRVTPRRVRNYDGRVESDIEVDGIIDGQRRKYRTTWVVEIIDGRVESLSLHFI	0.723
SHHEEHLKRLESFLLEATDTGDEDFLTKLIDPHVKLDIDGVELHGREDWLKYFLDLGVDHVRITSSRDINGRLHLTTRMHIGDKITETRVHSEKFDGQWVIKEIIIH	0.823
SHKEEEFRRLFELTIRMFLTGDEDVMSKLMDPNVRLQVHVNGKNIEIHGWENLIKTFIDLGIDHWEFKRSDIIGDFVMLDGRIEFNGRRSNTELRFLIIDGRVKSIIIKIE	2.05
SHLEEDAEKALRHLIHLFYTGDEKTLHNLADPNTRFRIGDKEYHGMEYILEFWLHIRLEDFDVERMSVQGDKIHIDSRMTLHFNGRSREIEVHILLLKYNGVWRIEEVRIH	1.24
SHLEEEAKEAHDVWLHELLTGDEHQINRLLDPHTRVHIGDKDLHGRHELVRKMVETVRRVDHYHLKIKHLRVQGDKIVSTGNYTLHINGKDIHIDTRLILTKIDGVWILEEIRVE	1.16
SHLEEETMHIAEIFIKNELTGDERKLVELLDPNTRLHIDIGDKHIDVHGMENITKLLREIWKRLGADHVHIKDVRVQGDKADIITRIDVNGREIHSRIHILVINGKIESLKLHVE	1.33
SHLEEHLKENLKREEEARRTGDFRFFSRLADPHVKIIINGVELHGMETYNEHWRQIWHDSHHMEITSIDVQGDKIEADIRIIEHGRINGVRESIVLTVRLRFEKINGRWVLTMIIIE	0.077
SHLKEDLRRALEKELQDLRTGDEEKIVRMMDPNVRLHIDGVELHGRDWLSRYAKEMRTEHIELRRFETQGNKIHIDTEVDLRYGDFRRDVHVEIIAIKVDGRWVKHETEVR	-0.081
SHLSEIAEEIMRELAHAQITGDEHTISRLLDPDTRVEFNGQELHGRDSWVKFLRELGVDHIEIRLEIKRMRIFENRVEIDGVDHIIIRYNGREERREIPSHWDLMKIDGRWSIHSVRAE	1.4
SHNDKLWHEDIELFIEAWETGDWKLLVEMLDPHTRIEIRQGDKTIVLHGREDASRDIIEYTEFFKNVTITKDDRHIQGDKTEMHITIIIGEFVLRTIIEFDMFNGQLKTYRRKVL	1.18
SHNEEQSEREAKLEIEAYLTGDFDTLHRLADPNVRNNIEYGDKEIRLHGREEWVHQFYKLVEEYKGVKIHLQHLEYQGDKVILRIEIRVNGRERVLEIQIHVINGRSKEVNVETHVH	1.18
SHVEEEAEHFWEELVRAYKTGDENLLKRLADPNVKVDINGRELIGREEFARVVSEERRQMRSHVELHDIRKDGDKMHINTILRIHIGDKEVSRTTHLHSIKVDGRWRLETWHIV	1.06
SHVEEESREAIERFEHLLRTGNEEELENLADPNVLLRVNGKEIWGRERAIKHIIHEMTRVKNMKLTSESFEISENHIHFKFTLTINGKIIHLEIVTKKVDGRWVIKHVEFH	1.32
SHVEELSHEVTRWVDIALQTGDERVIDEYLDPNARIDVGDKHFIGREEMSEFYSEFSRRVKNLKLSRYHKKDERIIGNKVILHGKLNVNINGRSHEIDTEIVSMKVNGRWLVEKEIVN	0.302
SHVEQESREIFEQIVRNLKTGDEDLLTELLDPNTLHIVNGVEIHGMEIVAKFLLDWRRKVKNIRIHDEEERHIEIYGDKVISHVDMDGIVNGRRVRRENIWIAEKVDGRWVIREVEVR	1.94
SHVKEIIRHFFDELVRRRETGDEEVLKELADPHTRLRVGEKEIHGWDEILTRFITWLEIHGAEYTDHRIHDIRVVGEKVHVESEIDIDYNGKHVEHHFEIVVEKINGRWRMKSIFVS	1.27
SHWDQRLEELSKLVVDHLNTGDFEEIKRLVDPHMRLEIGDKTRIGREQIHEWLEEFLRRYKNARVEIRIEHHELYGEKFFADTRLNLHVGDKHHHFDTRLEIHVIDGKIHSMSMRIH	1.1
